The record followed here is paper PMC7570020, “The PIFs Redundantly Control Plant Defense Response against Botrytis cinerea in Arabidopsis”.

Data set [1] concerns the target T1, GST-PIF4 bHLH (Arabidopsis thaliana, UniProt Q8W2F3 257-306).
T1 chain: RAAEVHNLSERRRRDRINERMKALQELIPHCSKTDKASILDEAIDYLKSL
The data set is described as follows: EMSA; Chemiluminescent EMSA Kit (Beyotime), manufacturer's protocol; buffer, salt, pH and temperature not stated. The conditions noted are these: protein: recombinant; tags: N-terminal GST (pGEX); chain copies: 2; label: 5' biotin; blunt. (In general: Mobility shift assays separate free from complexed probe on a gel.)

Data set [2] deals with T2, GST-PIF5 (Arabidopsis thaliana, UniProt Q84LH8 1-444).
T2 sequence: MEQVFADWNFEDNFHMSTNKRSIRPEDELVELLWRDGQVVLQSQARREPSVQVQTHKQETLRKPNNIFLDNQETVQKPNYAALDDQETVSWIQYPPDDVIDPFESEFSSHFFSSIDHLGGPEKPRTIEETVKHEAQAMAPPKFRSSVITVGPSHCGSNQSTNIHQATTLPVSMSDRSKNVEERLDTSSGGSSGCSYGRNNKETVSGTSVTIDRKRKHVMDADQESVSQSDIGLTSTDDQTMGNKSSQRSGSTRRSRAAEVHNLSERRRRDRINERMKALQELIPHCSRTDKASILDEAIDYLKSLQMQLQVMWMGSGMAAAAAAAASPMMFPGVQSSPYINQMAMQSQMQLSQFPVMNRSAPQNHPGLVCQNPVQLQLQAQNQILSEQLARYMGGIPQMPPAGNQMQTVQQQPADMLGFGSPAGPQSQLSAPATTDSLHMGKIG
Described as above. The conditions noted are these: protein: recombinant; tags: N-terminal GST (pGEX); chain copies: 2; label: 5' biotin; blunt.

The target of data set [3] is T1, GST-PIF4 bHLH. The data set is described as follows: competition; increasing unlabeled competitor against labeled N1; Chemiluminescent EMSA Kit (Beyotime), manufacturer's protocol; buffer, salt, pH and temperature not stated. The following applies: protein: recombinant; tags: N-terminal GST (pGEX); chain copies: 2; label: none; blunt.
Data set [4] concerns the target T2, GST-PIF5. The description is as above. The following applies: protein: recombinant; tags: N-terminal GST (pGEX); chain copies: 2; label: none; blunt.

B1: ERF1 G-box probe (dsDNA)
DNA 1: GAGCCAAAAACTTTGAACACGTGCGGGATATCAAATAATCA
DNA 2: TGATTATTTGATATCCCGCACGTGTTCAAAGTTTTTGGCTC
As to B1, the binding result with GST-PIF4 bHLH [1] and in the data set with GST-PIF5 [2] was “binds” throughout.

B2: ERF1 competitor (dsDNA)
DNA 1: GAGCCAAAAACTTTGAACACGTGCGGGATATCAAATAATCA
DNA 2: TGATTATTTGATATCCCGCACGTGTTCAAAGTTTTTGGCTC
Take B2: the binding result with GST-PIF4 bHLH [3] and with GST-PIF5 [4] was “binds” throughout.
